A short description of the data set: protein stability index of a GFP-peptide fusion (yeast GPS) (PSI 1-4); higher = more stable; sorted into four equal gates, so the index is relative within each strain. In outline: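 Each library plasmid carries Cherry plus GFP with a tiled 17-residue yeast protein peptide fused downstream, and the pooled library was carried in yeast. Mid-log cultures in leucine-free medium were sorted into four equal gates by GFP/Cherry ratio. Reads from Illumina sequencing of PCR-amplified plasmids from each gate were assigned to strains by barcodes. Per peptide, the protein stability index was computed as the summed products of gate read frequency and gate number.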

Data on 25 sequences can be found in the supplement of paper PMC9732359.

± gives the uncertainty stated by the source.

Consider MAHENVWFSHPRRYGKG [RPS29A], for which the protein stability index runs as follows: (doa10∆) 3.39 ± 0.24; (pdr5∆) 2.95 ± 0.17; (san1∆) 3.18 ± 0.14; (ubr1∆) 3.18 ± 0.23.

For the sequence MAKLNECPLDPGGYFIV [RET1], the protein stability index reads like this: (doa10∆) 2.87 ± 0.11; (pdr5∆) 3.28 ± 0.091; (san1∆) 2.83 ± 0.086; (ubr1∆) 3.23 ± 0.099.

For the sequence MANTGCLSPGAFLSKVP [SRP14], the protein stability index runs as follows: (doa10∆) 2.56 ± 0.076; (pdr5∆) 2.3 ± 0.091; (san1∆) 2.74 ± 0.14; (ubr1∆) 2.52 ± 0.061.

Regarding MASTELSLKRTLTDILE [RPN4], the protein stability index is 1.26 ± 0.18 (doa10∆), 2.65 ± 0.17 (pdr5∆), 2.72 ± 0.16 (san1∆) and 2.02 ± 0.29 (ubr1∆).

As to MDALYEKIWFAISKENL [SIR3], the protein stability index runs as follows: (doa10∆) 2.21 ± 0.06; (pdr5∆) 1.95 ± 0.052; (san1∆) 1.51 ± 0.088; (ubr1∆) 1.27 ± 0.047.

As to MDCTKEEEATMTTSAVS [YIL149C/MLP2], the protein stability index (doa10∆) was determined as 3.35 ± 0.08, the protein stability index (pdr5∆) was 3.24 ± 0.065, the protein stability index (san1∆) came to 3.28 ± 0.06 and the protein stability index (ubr1∆) was 3.12 ± 0.059.

On to MDFANLWVFQAFTCFCI [SRB8], for which the protein stability index reads like this: (doa10∆) 1.55 ± 0.054; (pdr5∆) 1.2 ± 0.043; (san1∆) 1.16 ± 0.08; (ubr1∆) 1.21 ± 0.042.

Consider MDPQTLITKANKVSYYG [RTT102], for which the protein stability index reads like this: (doa10∆) 1.85 ± 0.047; (pdr5∆) 1.73 ± 0.042; (san1∆) 1.71 ± 0.12; (ubr1∆) 1.87 ± 0.052.

Consider MDTIQDKLINDVTAIQT [ECM29], for which the protein stability index was found to be 3.22 ± 0.083 (doa10∆), 3.23 ± 0.1 (pdr5∆), 3.2 ± 0.085 (san1∆) and 3.34 ± 0.055 (ubr1∆).

MEFSNLYKEFFNEKFPS [NUT1]: the protein stability index (pdr5∆) stood at 3.17 ± 0.15, the protein stability index (san1∆) worked out at 2.98 ± 0.069 and the protein stability index (ubr1∆) is 3.04 ± 0.1.

MEGNAQPVNFNRSWDHA [RPO31]: the protein stability index runs as follows: (doa10∆) 2.22 ± 0.11; (pdr5∆) 2.31 ± 0.071; (san1∆) 2.39 ± 0.13; (ubr1∆) 2.35 ± 0.067.

As to MEGQKLDDPVLNAIVSK [YJR042W/NUP85], the protein stability index runs as follows: (doa10∆) 3.27 ± 0.19; (pdr5∆) 3.2 ± 0.2; (ubr1∆) 3.21 ± 0.17.

In the case of MELSPTYQTERFTKFSD [YDL116W/NUP84], the protein stability index runs as follows: (doa10∆) 3.09 ± 0.13; (pdr5∆) 2.74 ± 0.17; (ubr1∆) 2.79 ± 0.22.

Consider MENEFFKVQELLHSKPS [NAS6], for which the protein stability index reads like this: (doa10∆) 2.2 ± 0.14; (pdr5∆) 2.02 ± 0.082; (san1∆) 2.68 ± 0.14; (ubr1∆) 2.3 ± 0.085.

For the sequence MERLDGDYNNTVYSSEQ [SMC3], the protein stability index is 2.94 ± 0.11 (doa10∆), 3.18 ± 0.12 (pdr5∆), 3.25 ± 0.071 (san1∆) and 3.16 ± 0.042 (ubr1∆).

Take MFGAKPAGTSLFGNNAG [YGL172W/NUP49]: the protein stability index runs as follows: (doa10∆) 3.16 ± 0.076; (pdr5∆) 3.08 ± 0.067; (san1∆) 3.01 ± 0.072; (ubr1∆) 3.06 ± 0.053.

MGDELTRSHFNALYDTL [RPN6]: the protein stability index runs as follows: (doa10∆) 2.3 ± 0.048; (pdr5∆) 2.45 ± 0.067; (san1∆) 2.67 ± 0.051; (ubr1∆) 2.74 ± 0.044.

Regarding MGSLINGITLALIDAGI [SKI6], the protein stability index by setting is: (doa10∆) 1.89 ± 0.1; (pdr5∆) 2.1 ± 0.055; (san1∆) 2.05 ± 0.075; (ubr1∆) 2 ± 0.051.

Take MGYSGWCTTCKSAENII [RET1]: the protein stability index reads like this: (doa10∆) 3.21 ± 0.15; (pdr5∆) 2.99 ± 0.14; (san1∆) 3.22 ± 0.079; (ubr1∆) 3.19 ± 0.094.

Take MIDAVFEQDSHLRYQPD [SNF6]: the protein stability index is, setting by setting: (doa10∆) 3.09 ± 0.076; (pdr5∆) 3.19 ± 0.065; (san1∆) 3.15 ± 0.041; (ubr1∆) 3.19 ± 0.054.

Take MIFWNDICQIDTNAPVA [SRB8]: the protein stability index (doa10∆) stood at 2.4 ± 0.063, the protein stability index (pdr5∆) came out at 1.8 ± 0.052, the protein stability index (san1∆) came out at 2.12 ± 0.093 and the protein stability index (ubr1∆) is 2.02 ± 0.051.

For the sequence MIQPPQQGQNMSEQQWR [ROX3], the protein stability index was 2.15 ± 0.082 (doa10∆), 2.38 ± 0.06 (pdr5∆), 2.39 ± 0.093 (san1∆) and 2.19 ± 0.033 (ubr1∆).

For the sequence MIQTPRELLNPRYTYHT [YML031W/NDC1], the protein stability index runs as follows: (doa10∆) 2.95 ± 0.078; (pdr5∆) 2.83 ± 0.081; (san1∆) 2.98 ± 0.11; (ubr1∆) 3.35 ± 0.14.

As to MIRLLGSESDDSEGSIK [ECM29], the protein stability index reads like this: (doa10∆) 2.67 ± 0.21; (san1∆) 2.54 ± 0.26; (ubr1∆) 3.4 ± 0.25.

On to MISEVPSVAAEYVYFFN [RPC40], for which the protein stability index was found to be 1.53 ± 0.11 (doa10∆), 1.13 ± 0.091 (pdr5∆), 1.23 ± 0.11 (san1∆) and 1.07 ± 0.079 (ubr1∆).
